Laboratory results published in patent US20250051414A1.

Key:
IL-2Rβ/γ Fc heterodimer = IL-2Rβ/γ Fc heterodimer (UniProt P14784); experiment: BLI (Octet RED384), biotinylated monomeric IL-2/Fc on streptavidin sensors, 1:1 kinetic fit
[1] = target: IL2-Ra ectodomain with C-terminal 6xHis tag (UniProt P01589); experiment: BLI (Octet RED384), biotinylated monomeric IL-2/Fc on streptavidin sensors, equilibrium binding
UniProt P01589, sequence (P01589 other isoform, or with tags, fused parts or gaps limits assumed): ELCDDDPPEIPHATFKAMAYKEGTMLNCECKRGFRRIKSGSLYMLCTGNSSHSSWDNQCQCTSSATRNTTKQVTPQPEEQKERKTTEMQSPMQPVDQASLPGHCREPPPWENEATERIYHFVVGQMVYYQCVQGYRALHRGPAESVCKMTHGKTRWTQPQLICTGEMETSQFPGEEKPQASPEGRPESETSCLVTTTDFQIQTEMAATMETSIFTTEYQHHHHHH

UniProt P14784, sequence (P14784 other isoform, or with tags, fused parts or gaps, chain 1 of 2): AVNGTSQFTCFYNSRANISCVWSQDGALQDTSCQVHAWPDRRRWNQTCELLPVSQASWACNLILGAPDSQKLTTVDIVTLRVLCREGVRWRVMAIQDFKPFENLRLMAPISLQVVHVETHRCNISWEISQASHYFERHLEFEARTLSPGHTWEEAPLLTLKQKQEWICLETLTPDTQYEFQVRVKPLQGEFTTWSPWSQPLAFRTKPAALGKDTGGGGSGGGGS
UniProt P14784, sequence (P31785 other isoform, or with tags, fused parts or gaps, chain 2 of 2, further chain): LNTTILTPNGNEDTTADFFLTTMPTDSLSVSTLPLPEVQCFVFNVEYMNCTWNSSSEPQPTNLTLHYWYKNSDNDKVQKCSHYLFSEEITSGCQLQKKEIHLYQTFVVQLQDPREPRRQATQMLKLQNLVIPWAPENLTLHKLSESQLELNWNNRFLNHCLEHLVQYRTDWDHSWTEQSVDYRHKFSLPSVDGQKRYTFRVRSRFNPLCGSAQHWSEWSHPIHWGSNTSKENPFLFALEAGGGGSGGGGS

| Substance | Kd (IL-2Rβ/γ Fc heterodimer) [nM] | Kd [1] [nM] |
| --- | --- | --- |
| N88D C-term (Fc fusion) | 24 | 1.01 |
| R38Q N-term (Fc fusion) | 3.99 | 0.71 |
| V91K C-term (Fc fusion) | 7.56 | 0.69 |
| WT N-term (Fc fusion) | 5.3 | 0.19 |

The remaining lines, values ahead:

| Kd (IL-2Rβ/γ Fc heterodimer) [nM] | Kd [1] [nM] | Substance |
| --- | --- | --- |
| 2.81 | 9.48 | F42Q N-Term (Fc fusion) |
| 22.4 | 0.43 | H16N N-term (Fc fusion) |
| 3.04 | 0.54 | WT C-term (Fc fusion) |
